The values that follow come from patent US20200079848A1 (Five Prime, published 2020).

Assay [1] concerns the target T1, human ILT4 (hILT4) expressed on cells (human, UniProt Q8N423 22-597).
T1 construct: hILT4 on transfected CHO or 293T cells, or native on human monocytes and macrophages; also called LILRB2
The experiment in a line: antibody titration flow cytometry binding assay on transfected cells, nonlinear regression. A general note: Flow cytometry measures light scatter and fluorescence of single cells or particles in a stream.

The next assay concerns the target T2, human LILRA3 (human, UniProt Q8N6C8 24-439).
T2 construct: whole, on cells; also called hLILRA3; LIRA3
The assay is described as above.

Assay [2] has as its target T3, hILT4-His-Avi tag (human, UniProt Q8N423 22-459).
T3 construct: also called monomeric human ILT4; extracellular region of hILT4 linked to a His-Avi tag
The experiment in a line: SPR Biacore T200, 37 C; antibody captured on protein A/G chip, monomeric hILT4 as analyte; kinetic fit. Here is the method:
The binding kinetics of the parent and germline reversion mutant anti-hILT4 antibodies (in the context of IgG1.3) were measured via Surface Plasmon Resonance (SPR) using a Biacore® T200 instrument. The assay temperature was 37° C. and the running buffer was PBS pH 7.4 supplemented with 0.05% Tween-20. Allanti-hILT4 antibodies were captured on a CM4 chip with pre-immobilized protein A/G (Pierce Thermo Scientific catalog number 21186). […] Monomeric human ILT4 was injected as analyte. […] The hILT4 used in this experiment, comprising the extracellular region of hILT4 linked to a His-Avi tag, consists of the following amino acid sequence: […]
A general note: Surface plasmon resonance follows binding to a sensor surface in real time, without labels.

Assay [3] addresses T3, hILT4-His-Avi tag. In words: SPR Biacore T200, 37 C; antibody captured by anti-human Fc on CM4 chip, hILT4-His-Avi as analyte; 1:1 Langmuir fit. Here is the method: The running buffer was 10 mM HEPES pH 7.4 supplemented with 0.05% Tween-20 and 1 g/L BSA. All anti-ILT4 antibodies were captured on a CM4 chip with pre-immobilized anti-human Fc capture antibody from Southern Biotech (catalog number 2081-01). […] All data were double-referenced and fitted to a 1:1 Langmuir model with mass transport using Biacore T200 Evaluation Software version 3.1.

In the next assay the target is T4, human LILRA2 (human, UniProt Q8N149 24-483).
T4 construct: whole, on cells; also called hLILRA2
The experiment in a line: flow cytometry, 293T transfectants, antibody 20 µg/ml; stacked histograms, control: parental cells. Here is the method: (§1) Individual ILT family members were overexpressed in 293T cells. Each transfectant was stained with 20 μg/ml of anti-ILT4 antibodies followed by 1 μg/ml of anti-human IgG secondary mAb. Binding of the antibodies to each transfectant was measured by flow cytometry.

The target of a further assay is T5, human LILRA4 (human, UniProt P59901 24-499).
T5 construct: whole, on cells; also called hLILRA4
The assay is described as above. Here is the method: as §1

The next assay concerns the target T6, human LILRA5 (human, UniProt A6NI73 42-299).
T6 construct: whole, on cells; also called hLILRA5
The assay is described as above. Here is the method: as §1

The target in a further assay is T7, human LILRA6 (human, UniProt Q6PI73 24-481).
T7 construct: whole, on cells; also called hLILRA6
Described as above. Here is the method: as §1

The target in another assay is T8, human ILT2 (human, UniProt Q8NHL6 24-650).
T8 construct: whole, on cells; also called hILT2
The assay is described as above. Here is the method:
as §1

A further assay addresses T9, human ILT3 (human, UniProt Q8NHJ6 22-448).
T9 construct: whole, on cells; also called hILT3
The assay is described as above. Here is the method:
as §1

In a further assay the target is T10, human ILT5 (human, UniProt O75022 24-631).
T10 construct: whole, on cells; also called hILT5; LILRB3
The description is as above. Here is the method: as §1

In another assay the target is T11, human LIR8 (human, UniProt O75023 24-590).
T11 construct: whole, on cells; also called hLIR8
Described as above. Here is the method: as §1

Assay [4] addresses T1, human ILT4 (hILT4) expressed on cells. The experiment in a line: flow cytometry on hILT4-transfected CHO cells, PE anti-human IgG secondary, GMFI (PE); EC50 from the table below the graph; the table has no unit, the concentration axis is in ug/mL.
For assay [5] the target is unchanged. The experiment in a line: flow cytometry on human monocytes of a healthy donor, directly labelled antibody, GMFI; EC50 from the table below the graph; the table has no unit, the concentration axis is in ug/mL. An excerpt: In FIG. 18B, monocytes selected from a normal healthy donor's peripheral blood were stained with individual anti-ILT4 antibodies conjugated to […].

Assay [6] has the same target. The experiment in a line: flow cytometry on hILT4-transfected CHO cells, MFI (PE); EC50 from the table beside the graph; the table has no unit, the concentration axis is in ug/mL.

T3 sequence (Q8N423 other isoform, or with tags, fused parts or gaps): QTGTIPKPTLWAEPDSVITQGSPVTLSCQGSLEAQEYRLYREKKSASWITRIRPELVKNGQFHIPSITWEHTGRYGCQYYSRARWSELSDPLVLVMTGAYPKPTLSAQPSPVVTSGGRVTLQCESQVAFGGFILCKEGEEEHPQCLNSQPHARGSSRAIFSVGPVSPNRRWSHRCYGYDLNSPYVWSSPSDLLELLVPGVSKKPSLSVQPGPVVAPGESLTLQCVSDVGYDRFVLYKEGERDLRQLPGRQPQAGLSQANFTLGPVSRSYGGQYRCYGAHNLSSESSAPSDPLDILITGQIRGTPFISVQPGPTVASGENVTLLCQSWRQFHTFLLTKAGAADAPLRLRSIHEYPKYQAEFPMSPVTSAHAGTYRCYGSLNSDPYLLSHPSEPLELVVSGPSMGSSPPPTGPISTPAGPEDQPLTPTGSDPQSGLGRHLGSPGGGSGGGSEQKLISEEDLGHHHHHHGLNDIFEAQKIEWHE
T1 sequence (Q8N423 other isoform, or with tags, fused parts or gaps): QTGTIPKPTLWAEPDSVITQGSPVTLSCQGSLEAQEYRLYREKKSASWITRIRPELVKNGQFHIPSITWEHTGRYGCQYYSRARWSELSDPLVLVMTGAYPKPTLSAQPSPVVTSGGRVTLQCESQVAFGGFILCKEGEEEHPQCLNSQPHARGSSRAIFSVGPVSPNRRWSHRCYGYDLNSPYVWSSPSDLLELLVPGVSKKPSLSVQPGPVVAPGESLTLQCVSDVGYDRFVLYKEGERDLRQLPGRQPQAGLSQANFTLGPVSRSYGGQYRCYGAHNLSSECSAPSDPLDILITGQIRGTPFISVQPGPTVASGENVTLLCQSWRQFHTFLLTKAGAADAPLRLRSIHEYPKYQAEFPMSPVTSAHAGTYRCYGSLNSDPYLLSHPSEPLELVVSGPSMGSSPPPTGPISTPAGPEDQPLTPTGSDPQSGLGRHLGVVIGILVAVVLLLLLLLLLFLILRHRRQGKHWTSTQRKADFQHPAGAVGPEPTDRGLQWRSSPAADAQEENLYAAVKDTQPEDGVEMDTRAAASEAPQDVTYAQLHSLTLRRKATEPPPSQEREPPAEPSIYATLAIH
T8 sequence (Q8NHL6 24-650): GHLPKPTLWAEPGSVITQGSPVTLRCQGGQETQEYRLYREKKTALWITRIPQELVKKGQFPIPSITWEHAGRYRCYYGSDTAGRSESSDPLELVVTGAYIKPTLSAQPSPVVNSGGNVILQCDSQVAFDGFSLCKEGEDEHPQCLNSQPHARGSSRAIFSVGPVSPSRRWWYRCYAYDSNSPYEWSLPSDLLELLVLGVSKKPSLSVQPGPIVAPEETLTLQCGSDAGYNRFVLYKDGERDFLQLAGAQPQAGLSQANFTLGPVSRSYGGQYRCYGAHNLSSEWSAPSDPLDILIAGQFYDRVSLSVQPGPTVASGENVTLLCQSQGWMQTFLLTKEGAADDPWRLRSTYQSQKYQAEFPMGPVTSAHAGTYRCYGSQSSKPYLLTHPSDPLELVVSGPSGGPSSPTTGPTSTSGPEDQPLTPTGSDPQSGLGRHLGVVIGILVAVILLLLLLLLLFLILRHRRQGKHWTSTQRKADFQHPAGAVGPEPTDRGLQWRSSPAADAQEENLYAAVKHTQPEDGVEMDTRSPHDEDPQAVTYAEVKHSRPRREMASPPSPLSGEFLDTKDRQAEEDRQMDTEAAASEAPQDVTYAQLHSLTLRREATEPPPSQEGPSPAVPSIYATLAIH
T4 sequence (Q8N149 24-483): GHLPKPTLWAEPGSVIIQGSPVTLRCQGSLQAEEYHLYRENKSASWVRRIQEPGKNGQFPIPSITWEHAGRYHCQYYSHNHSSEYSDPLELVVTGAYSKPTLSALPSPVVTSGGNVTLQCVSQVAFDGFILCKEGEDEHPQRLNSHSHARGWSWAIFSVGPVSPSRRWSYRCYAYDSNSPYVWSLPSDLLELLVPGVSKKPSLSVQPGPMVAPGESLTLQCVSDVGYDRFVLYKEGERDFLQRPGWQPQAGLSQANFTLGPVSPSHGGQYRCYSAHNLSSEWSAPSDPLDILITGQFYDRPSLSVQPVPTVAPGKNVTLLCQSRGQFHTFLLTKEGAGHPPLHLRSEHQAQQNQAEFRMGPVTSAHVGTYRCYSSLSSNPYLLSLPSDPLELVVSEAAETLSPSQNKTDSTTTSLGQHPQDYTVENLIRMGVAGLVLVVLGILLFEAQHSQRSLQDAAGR
T11 sequence (O75023 24-590): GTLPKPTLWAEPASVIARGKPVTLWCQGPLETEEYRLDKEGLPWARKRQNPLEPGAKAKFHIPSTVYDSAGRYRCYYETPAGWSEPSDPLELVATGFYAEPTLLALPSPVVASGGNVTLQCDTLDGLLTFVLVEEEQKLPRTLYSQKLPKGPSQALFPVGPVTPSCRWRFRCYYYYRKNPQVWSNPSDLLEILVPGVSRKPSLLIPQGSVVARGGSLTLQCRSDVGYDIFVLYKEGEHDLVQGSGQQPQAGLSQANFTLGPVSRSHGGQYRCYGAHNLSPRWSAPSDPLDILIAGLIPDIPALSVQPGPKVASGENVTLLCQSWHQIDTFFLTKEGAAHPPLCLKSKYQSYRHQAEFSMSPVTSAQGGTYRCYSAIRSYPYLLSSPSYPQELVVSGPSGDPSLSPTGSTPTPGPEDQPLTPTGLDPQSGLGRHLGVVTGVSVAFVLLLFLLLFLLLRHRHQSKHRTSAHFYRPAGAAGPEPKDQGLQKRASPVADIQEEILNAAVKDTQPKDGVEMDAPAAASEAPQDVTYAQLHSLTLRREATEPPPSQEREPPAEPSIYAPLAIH
T6 sequence (A6NI73 42-299): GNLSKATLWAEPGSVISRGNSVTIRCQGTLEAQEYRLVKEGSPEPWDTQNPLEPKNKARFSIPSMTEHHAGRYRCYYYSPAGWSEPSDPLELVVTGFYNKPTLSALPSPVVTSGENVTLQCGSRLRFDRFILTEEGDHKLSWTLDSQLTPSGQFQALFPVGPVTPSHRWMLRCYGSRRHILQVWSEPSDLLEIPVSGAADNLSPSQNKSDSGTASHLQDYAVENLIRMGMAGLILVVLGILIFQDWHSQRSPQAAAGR
T2 sequence (Q8N6C8 24-439): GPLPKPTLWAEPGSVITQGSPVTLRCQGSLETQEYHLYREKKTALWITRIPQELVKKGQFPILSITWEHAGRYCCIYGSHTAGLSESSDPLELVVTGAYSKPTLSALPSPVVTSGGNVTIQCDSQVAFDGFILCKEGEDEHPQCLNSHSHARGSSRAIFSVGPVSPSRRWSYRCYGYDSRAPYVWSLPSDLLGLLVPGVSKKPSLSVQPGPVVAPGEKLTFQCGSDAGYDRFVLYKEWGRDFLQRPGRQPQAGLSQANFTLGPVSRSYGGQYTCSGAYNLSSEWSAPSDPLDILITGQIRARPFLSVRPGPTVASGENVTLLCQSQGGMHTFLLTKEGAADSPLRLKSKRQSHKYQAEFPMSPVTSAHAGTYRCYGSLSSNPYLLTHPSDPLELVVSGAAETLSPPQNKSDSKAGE
T7 sequence (Q6PI73 24-481): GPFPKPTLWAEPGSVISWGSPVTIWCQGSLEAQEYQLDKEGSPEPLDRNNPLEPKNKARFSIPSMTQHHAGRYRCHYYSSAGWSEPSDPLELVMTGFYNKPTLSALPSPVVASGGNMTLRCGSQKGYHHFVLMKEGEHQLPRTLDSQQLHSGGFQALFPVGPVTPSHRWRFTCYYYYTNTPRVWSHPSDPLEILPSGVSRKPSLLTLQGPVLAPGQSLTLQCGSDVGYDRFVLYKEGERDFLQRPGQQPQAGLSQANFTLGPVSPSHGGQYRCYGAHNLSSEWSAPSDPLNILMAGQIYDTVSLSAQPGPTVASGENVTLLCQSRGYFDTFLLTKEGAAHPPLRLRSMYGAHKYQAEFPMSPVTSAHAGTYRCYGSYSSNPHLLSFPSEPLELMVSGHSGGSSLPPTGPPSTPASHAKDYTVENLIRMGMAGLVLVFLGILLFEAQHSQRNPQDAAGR
T5 sequence (P59901 24-499): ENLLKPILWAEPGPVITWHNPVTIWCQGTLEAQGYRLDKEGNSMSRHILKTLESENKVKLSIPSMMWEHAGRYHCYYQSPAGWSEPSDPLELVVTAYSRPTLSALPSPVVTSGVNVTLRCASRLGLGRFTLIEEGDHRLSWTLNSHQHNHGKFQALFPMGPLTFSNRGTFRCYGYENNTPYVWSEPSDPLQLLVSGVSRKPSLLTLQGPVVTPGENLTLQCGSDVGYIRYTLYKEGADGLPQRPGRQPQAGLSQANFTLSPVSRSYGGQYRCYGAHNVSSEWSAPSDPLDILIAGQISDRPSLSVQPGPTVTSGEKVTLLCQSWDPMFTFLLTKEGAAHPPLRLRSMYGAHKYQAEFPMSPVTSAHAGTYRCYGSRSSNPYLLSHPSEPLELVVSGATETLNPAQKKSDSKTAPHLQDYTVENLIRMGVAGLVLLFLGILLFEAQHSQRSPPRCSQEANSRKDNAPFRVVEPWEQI

B1: 21A5.a.IgG1.3 (antibody, V domains shown)
VH: QVQLVQSGAEVKKPGASVKVSCKASGYTFTDYYLHWVRQAPGQGLEWMGIFHPSGDITSSAQNFQGRVTMTRDTSTSTVYMELSSLRSEDTAVYYCARGGVLRYLDWSHAFDIWGQGTMVTVSS
VL: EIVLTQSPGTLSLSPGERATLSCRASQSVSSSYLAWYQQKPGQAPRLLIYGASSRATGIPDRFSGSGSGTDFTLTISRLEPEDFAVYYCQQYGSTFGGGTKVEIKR
notes: Germline reversion mutant of 21A5 (VH I70T, VK A3V; 21A5.1 light chain); IgG1.3; also called ILT4.9.IgG1.3; ILT4.9
The term EC50 denotes the concentration that produces a half-maximal response. A word on the Kd: it is the equilibrium constant for the complex coming apart. High values mean lower affinity, low ones higher affinity. The koff is the rate constant with which the complex falls apart. As usually defined, the kon is a measure of how fast the partners come together. A higher kon goes with faster complex formation. For the molecule B1, the EC50 in assay [1] turned out to be 0.085 µg/mL; with human LILRA3, 52.9 µg/mL; in assay [4], 0.0627 µg/mL; in assay [5], 0.395 µg/mL. Also, the results for the Kd with hILT4-His-Avi tag [2] and with hILT4-His-Avi tag [3] were 0.17 nM and 0.036 nM, respectively. The app. act. in the assay with hILT4-His-Avi tag [2] turned out to be 98%; in the assay with hILT4-His-Avi tag [3], 100%. Moreover, the koff turned out to be 0.00019 s⁻¹ with hILT4-His-Avi tag [2] and 1.7e-05 s⁻¹ in the assay with hILT4-His-Avi tag [3]. In addition, the kon in the assay with hILT4-His-Avi tag [2] was found to be 1.1e+06 M⁻¹ s⁻¹; in the assay with hILT4-His-Avi tag [3] it was 490000 M⁻¹ s⁻¹. In addition, the binding result with human LILRA2, with human LILRA4, in the assay with human LILRA5, with human LILRA6, with human ILT2 and in the assay with human ILT3 was “no binding (tested: 20 µg/ml)” each time. The binding result in the assay with human ILT5 and with human LIR8 was “no binding (tested: 20 µg/ml)” in each case.

B2: 10F10.4 (antibody, human IgG1, kappa, V domains shown)
VH: QVQLVESGGGVVQPGRSLRLSCAASGFTFSSYAMHWVRQAPGKGLEWVAIISYDEYNKYYADSVKGRFTISRDNSKNTLYLQMNSLRAEDTAVYYCAREWVGIRYWGQGTLVTVSS
VL: AIQLTQSPSSLSASVGDRVTITCRASQGISSALAWFQQKPGKAPKLLIYDASSLESGVPSRFSGSGSGTDFTLTISSLQPEDFATYYCQQFNSYPITFGQGTRLEIKR
notes: 10F10 with only the light chain reversion T63S
In the assay with hILT4-His-Avi tag [3], B2 had a dissociation constant Kd of 22 nM, an app. act. of 117%, a koff of 0.027 s⁻¹ and a kon of 1.2e+06 M⁻¹ s⁻¹.

B3: 9C8.A6 (antibody, V domains shown)
VH: QVQLVQSGAEVKKPGASVKVSCKASGYTFTSSDINWVRQATGQGLEWMGWMNPNSGHTGYAQKFQDRVTLTRDTSISTAYMELSSLRSEDSAVYYCARGGNSIDWGFSYYGLDVWGQGTTVTVSS
VL: AIQLTQSPSSLSASVGDRVTITCRASQGISSALAWYQQKPGKAPKLLIYDASSLESGVPSRFSGSGSGTDFTLTISSLQPEDFATYYCQQFNSYPFTFGPGTKVDIK
notes: Hybridoma antibody (human IgG / human kappa from transgenic mice), tested as hybridoma supernatant
For B3, a half-maximal effect in [6] (EC50) was put at 0.189 µg/mL.

B4: 2E5.A11 (antibody, V domains shown)
VH: QVQLVESGGGVVQPGRSLRLSCTASGFTFSNYGMHWVRQAPGKGLEWVAVIWYDGSNEYYAESVKGRLTISRDNSKNTLYLQVNSLRAEDTAVYYCARDPFYGSGNYFDYWGQGTLVTVSS
VL: not shown
notes: Hybridoma antibody (human IgG / human kappa), tested as hybridoma supernatant
B4: the EC50 in assay [6] was found to be 0.0986 µg/mL. This EC50 is about 1.9-fold lower than that of the molecule before.

B5: 9G4 (antibody, V domains shown)
VH: QVQLQESGPGLVKPSETLSLTCTVSGGSISSYYWNWIRQPPGKGLEWLGYIYYSGSTKYNPSLKSRVTISVDTSKNQFSLKLSSVTAADTAVYYCASSGWYYFDYWGQGTLVTVSS
VL: EIVLTQSPATLSLSPGERATLSCRASQSVSSYLAWYQQKPGQAPRLLIYDASNRATGIPARFSGSGSGTDFTLTISSLEPEDFAGYYCQQRSYWPWTFGQGTKVEIK
notes: Hybridoma antibody (human IgG / human kappa), tested as hybridoma supernatant; also called 9G4 (hybridoma)
As to B5, in [6], the response was half-maximal at 2.84 µg/mL (EC50).

B6: 21D9.H11 (antibody, V domains shown)
VH: EGQLLESGGDLVQPGGSLRLSCATSGFTFSNYAMNWVRQAPGKGLEWISVISVSGGSTYYADSVKGRFTISRDNSKNTLYLQMNSLRAEDTAVYYCAKDYYYDSGSYYDSFFDYWGQGTLVTVSS
VL: not shown
notes: Hybridoma antibody (human IgG / human kappa), tested as hybridoma supernatant; also called 21D9 (hybridoma)
In the case of B6, the EC50 in [6] was 0.0174 µg/mL.

B7: 24E5.A7 (antibody, V domains shown)
VH: EVQLLESGGGLVQPGGSLRLSCAASGFTFSSYVMSWVRQAPGKGLEWVSGISGSGGSTYYADSVKGRFTISRDNSKNTLYLQMNSLRAEDTAVYYCAKDQDIIAAYYFVYWGQGTLVTVSS
VL: DIQMTQSPSSLSASVGDRVTITCRASQGISSWLAWYQQKPEKAPKSLIYAASSLQSGVPSRFSGSGSGTDFTLTISSLQPEDFATYYCQQYNSYPLTFGGGTKVEIK
notes: as for B4
As to B7, the concentration giving a half-maximal response (EC50) in assay [6] was found to be 0.268 µg/mL. Compared with the last molecule, the EC50 is about 15-fold higher.

B8: 21D9.b.hIgG1.3 (antibody)
heavy: EVQLLESGGGLVQPGGSLRLSCATSGFTFSNYAMNWVRQAPGKGLEWISVISVSGGSTYYADSVKGRFTISRDNSKNTLYLQMNSLRAEDTAVYYCAKDYYYDSGSYYDSFFDYWGQGTLVTVSSASTKGPSVFPLAPSSKSTSGGTAALGCLVKDYFPEPVTVSWNSGALTSGVHTFPAVLQSSGLYSLSSVVTVPSSSLGTQTYICNVNHKPSNTKVDKRVEPKSCDKTHTCPPCPAPEAEGAPSVFLFPPKPKDTLMISRTPEVTCVVVDVSHEDPEVKFNWYVDGVEVHNAKTKPREEQYNSTYRVVSVLTVLHQDWLNGKEYKCKVSNKALPAPIEKTISKAKGQPREPQVYTLPPSREEMTKNQVSLTCLVKGFYPSDIAVEWESNGQPENNYKTTPPVLDSDGSFFLYSKLTVDKSRWQQGNVFSCSVMHEALHNHYTQKSLSLSPG
light: not shown
notes: Germline reversion mutant of 21D9 (VH G2V, D10G); light chain of 21D9; IgG1.3
Turning to B8, in the assay with hILT4-His-Avi tag [2], the equilibrium dissociation constant (Kd) is 0.34 nM, the app. act. is 90%, the off-rate (koff) is 0.0011 s⁻¹ and the association rate constant (kon) is 3.1e+06 M⁻¹ s⁻¹.

B9: 21D9.c.hIgG1.3 (antibody, V domains shown)
VH: EVQLLESGGDLVQPGGSLRLSCAASGFTFSNYAMNWVRQAPGKGLEWISVISVSGGSTYYADSVKGRFTISRDNSKNTLYLQMNSLRAEDTAVYYCAKDYYYDSGSYYDSFFDYWGQGTLVTVSS
VL: not shown
notes: Germline reversion mutant of 21D9; light chain of 21D9; IgG1.3; also called 21D9.VH-G2V/T24A.IgG1.3
In the assay with hILT4-His-Avi tag [2], B9 registered a Kd of 0.42 nM, an app. act. of 97%, a koff of 0.0012 s⁻¹ and an association rate constant (kon) of 3e+06 M⁻¹ s⁻¹.

B10: 21D9.d.hIgG1.3 (antibody, V domains shown)
VH: EVQLLESGGDLVQPGGSLRLSCATSGFTFSNYAMNWVRQAPGKGLEWVSVISVSGGSTYYADSVKGRFTISRDNSKNTLYLQMNSLRAEDTAVYYCAKDYYYDSGSYYDSFFDYWGQGTLVTVSS
VL: not shown
notes: Germline reversion mutant of 21D9; light chain of 21D9; IgG1.3; also called 21D9.VH-G2V/I48V
In the assay with hILT4-His-Avi tag [2], B10 displayed a Kd of 0.35 nM, an app. act. of 84%, a koff of 0.0011 s⁻¹ and a kon of 3.1e+06 M⁻¹ s⁻¹.
